Our source for the Kd values is publication PMC11224324, “Structural and functional insights underlying recognition of histidine phosphotransfer protein in fungal phosphorelay systems” (Communications Biology, 2024).

The chains are these.
B1: Histag-Ct_HPt (residues 9-175), labelled with Red-Tris NTA dye (natural protein)
chain: ADRAQDHNNNNTPRNSNYVVEEEEVSEEEEEAIMMPDFGDHVDTSIFGQILEMDEGDDHDFSAPLVLNFFEQAEETFQKMETALNNKDLPELSKLGHFLKGSSATLGFTKIRDSCQLIQQYGHGLNVDGSSEPDEGVCLKKIAEALASARVDTVALHKMMREFFEY
modifications: Red-Tris NTA Dye bound to the Histag
B2: REC_(hHK3) N1107A/N1110A, double mutant of the REC-1 domain of hHK3 from Chaetomium thermophilum (domain or fragment)
chain: ENRATPSLADNTRSFEILLAEDAAVAQRLAVKILEKYHHVVTVVGNGEEAVEAVKRKKFDVILMDVQMPVMGGFEATAKIREYEASLPTPQRTPIIALTAHAMMGDREKCLEAQMDEYLSKPLQQANLIQTILKCA

What all share (experiment): MST; Histag-Ct_HPt labelled with Red-Tris NTA dye held constant; REC-1 domain in sixteen two-fold dilutions from 1 mM (0.32 mM for REC_hHK6); PBS + 0.05% Tween-20; medium MST power; hyperbolic fit, 1:1 model; mean of two titrations
Settings in all cases: both partners purified

For assay [1], the target named is T1, REC_(hHK6), REC-1 domain of hybrid histidine kinase hHK6 (group VI, ortholog of Sln1) from Chaetomium … (Chaetomium thermophilum).
T1 construct: REC-1 (receiver) domain of hHK6, CTHT_0050920, group VI hybrid histidine kinase of C. thermophilum (protein ends at residue 1290); also called REC_(hHK6)-BeF; not shown: His6, N-terminal, cleaved

For assay [2], the target named is T2, REC_(hHK3), REC-1 domain of hybrid histidine kinase hHK3 (group III, ortholog of Nik1) from Chaetomium … (Chaetomium thermophilum).
T2 construct: REC-1 (receiver) domain of hHK3, CTHT_0053860, group III hybrid histidine kinase of C. thermophilum; not shown: His6, N-terminal, cleaved

In assay [3] the target is B1.

The term Kd denotes the constant that tells how readily two partners part at equilibrium. For the molecule B1, the Kd in assay [1] was 13 ± 0.04 µM; in assay [2] it was 28 ± 0.1 µM.

For the molecule B2, the Kd in assay [3] was 46 ± 0.07 µM.
